Target: improved light‐induced dimerizing protein (iLID) (Avena sativa | Escherichia coli)
Test: recruitment to the GUV membrane, fluorescence microscopy; 450 nM iLID (His tag on DGS–NTA (Ni) lipids, inner membrane) and 100 nM SspB–mCherry encapsulated in POPC GUVs with 5% DGS–NTA (Ni); external blue light for 15 min

B1: SspB Nano–mCherry (stringent starvation protein B, Nano, fused to mCherry), P0AFZ3 1-165 (natural protein)
chain: SSPKRPKLLREYYDWLVDNSFTPYLVVDATYLGVNVPVEYVKDGQIVLNLSASATGNLQLTNDFIQFNARFKGVSRELYIPMGAALAIYARENGDGVMFEPEEIYDELNI
modifications: not checked
  ratio of mCherry intensity at the GUV membrane to luminal intensity: 3 fold

From article PMC11935020
